# Measurements published in paper PMC5390082 (Scientific Reports, 2015).
# B1: Mycobacterium tuberculosis protein tyrosine phosphatase PtpA wt (enzyme)
# chain: MSDPLHVTFVCTGNICRSPMAEKMFAQQLRHRGLGDAVRVTSAGTGNWHVGSCADERAAGVLRAHGYPTDHRAAQVGTEHLAADLLVALDRNHARLLRQLGVEAARVRMLRSFDPRSGTHALDVEDPYYGDHSDFEEVFAVIESALPGLHDWVDERLARNGPS
# Target: T1, Trifunctional enzyme (TFP), ECHA/ECHB, immunopurified from human macrophage extract (human (endogenous in THP-1), UniProt P40939 37-763; P55084 34-474)
# T1 construct: also called immunopurified human TFP
# Experiment: SPR; Biacore 3000; […]; 20 mM Tris-HCl pH 8.0, 50 mM NaCl, 5 mM EDTA, 0.005% P20, 1 mM DTT; […]
# Conditions: both partners purified
# T1 sequence (P40939 37-763, chain 1 of 2): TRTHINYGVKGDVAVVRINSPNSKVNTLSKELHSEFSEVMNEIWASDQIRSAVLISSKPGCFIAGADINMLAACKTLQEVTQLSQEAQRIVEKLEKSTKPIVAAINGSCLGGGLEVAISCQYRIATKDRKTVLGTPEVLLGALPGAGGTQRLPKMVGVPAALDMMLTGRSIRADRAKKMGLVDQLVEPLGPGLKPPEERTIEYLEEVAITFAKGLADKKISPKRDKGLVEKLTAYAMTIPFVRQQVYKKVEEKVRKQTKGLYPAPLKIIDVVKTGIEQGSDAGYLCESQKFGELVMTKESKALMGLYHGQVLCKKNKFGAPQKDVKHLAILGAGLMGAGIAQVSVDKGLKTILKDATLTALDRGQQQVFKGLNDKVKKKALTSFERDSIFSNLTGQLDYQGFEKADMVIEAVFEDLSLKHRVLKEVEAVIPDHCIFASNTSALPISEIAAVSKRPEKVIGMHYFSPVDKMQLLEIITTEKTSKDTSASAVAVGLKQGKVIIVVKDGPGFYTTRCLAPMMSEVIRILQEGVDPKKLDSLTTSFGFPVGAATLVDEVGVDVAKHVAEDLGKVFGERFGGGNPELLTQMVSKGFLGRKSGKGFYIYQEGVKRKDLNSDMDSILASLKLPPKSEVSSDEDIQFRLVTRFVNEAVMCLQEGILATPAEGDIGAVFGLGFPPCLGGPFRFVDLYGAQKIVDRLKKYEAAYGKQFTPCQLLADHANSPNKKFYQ
# T1 sequence (P55084 34-474, chain 2 of 2): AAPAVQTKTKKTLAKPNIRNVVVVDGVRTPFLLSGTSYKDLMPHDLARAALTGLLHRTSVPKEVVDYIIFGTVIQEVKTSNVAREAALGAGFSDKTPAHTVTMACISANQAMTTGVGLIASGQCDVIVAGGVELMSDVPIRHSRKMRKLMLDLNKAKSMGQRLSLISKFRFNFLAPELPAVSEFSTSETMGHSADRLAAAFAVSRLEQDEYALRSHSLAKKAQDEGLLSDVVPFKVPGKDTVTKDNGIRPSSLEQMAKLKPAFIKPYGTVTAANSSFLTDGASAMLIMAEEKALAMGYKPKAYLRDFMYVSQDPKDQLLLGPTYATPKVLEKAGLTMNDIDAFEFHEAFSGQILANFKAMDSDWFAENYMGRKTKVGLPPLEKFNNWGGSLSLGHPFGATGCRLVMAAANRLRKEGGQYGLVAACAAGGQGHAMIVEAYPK
binder,measurement,value
B1,binding result,binds
